Experimental data from patent publication US8748480B2, “Methods for treating opioid tolerance” (priority 2005, dated 2014).

What was measured:
Assay type in all cases: binding
Gβ1γ2 Asp246Ser = biological target: T1, Gβ1γ2 Asp246Ser (Rattus norvegicus, UniProt P54311, D246S); experiment: Phage ELISA, b-βγ mutant Asp246Ser; conditions: Asp246 mutant (Asp246Ser), N-Terminal Interface; mean ± SD
T1 construct: made in house; host or cells: Sf9 insect cells (baculovirus)
Text: (§1) Wild-type Gβ1 and Gβ1 mutants were made in the baculovirus vector PDW464 which encodes a biotinylation site at a lysine upstream of the amino terminus of Gβ1 (Goubaeva, et al. (2003) supra). Mutants were generated by overlap extension PCR using standard protocols. The wild-type and mutant Gβ1 constructs consisted of a 20 amino acid biotin acceptor peptide (BAP) sequence fused in-frame with the amino-terminus of rat Gβ1 subunit. When coexpressed with biotin holoenzyme synthetase (BirA) in Sf9 cells, the Gβ1 subunit becomes covalently biotinylated in vivo at the Specific lysine acceptor residue in the BAP. Using this approach, 1-2 mg protein of purified protein can be obtained per liter of Sf9 insect cells. As 45 ng of protein is used in the phage ELISA assay, a single purification is sufficient for 10,000 to 30,000 binding assays.
(§2) Phage ELISA assays used to assess peptide binding to wild-type and mutant b-βγ were performed according to standard methods (Smrcka and Scott (2002) Methods Enzymol. 344:557-76). Briefly, 1 μg streptavidin was immobilized in the well of a […] overnight at 4° C. The wells were blocked with 100 μL of 2% bovine serum albumin (BSA) in Tris-buffered saline (TBS) for 1 hour at 4° C. followed by three washes of 1×TBS/0.5% TWEEN®. Forty μL of 25 nM bGβ1γ2 in TBS/0.5% TWEEN® was added to each well and incubated at 4° C. for 1.5 hour. The wells were washed, followed by the addition of 1×10^6 to 1×10^10 phage particles and incubated at 4° C. for 3 hours. The wells were then washed six times with TBS/0.5% TWEEN® followed by addition of 40 μL of 1:5000 dilution of anti-M13 antibody (Pharmacia, Uppsala, Sweden) and incubated at room temperature for 1 hour. The wells were washed, followed by the addition of 40 μL of (2,2′-Azino-bis(3-ethylbenzthiazoline)-6-sulfonic acid (ABTS) and the colorimetric reaction was monitored at 405 nm. Non-specific binding was subtracted for each reading.
(§3) Both assays were then carried out with Gβ1γ2 heterodimers containing mutations in the Gβ1 subunit.
(§4) The nine peptides were selected to represent the different consensus groups of peptides previously identified (See Scott et al. (2001) supra; Table 9) and to compare binding characteristics within and between consensus groups. […] As disclosed herein, the binding signal obtained in the ELISA assay was correlated to a loss in affinity by comparing the results to behavior of the peptide in a solution based assay. […] For the purposes of present disclosure, any substitution that decreased the binding to less than 20% of the wild-type binding was considered to be a critical binding contact for that peptide.

Gβ1γ2 Met188Ala = biological target: T2, Gβ1γ2 Met188Ala (Rattus norvegicus, UniProt P54311, M188A); experiment: Phage ELISA, b-βγ mutant Met188Ala; conditions: alanine-substituted Met188, Shared; mean ± SD
T2 construct: made in house; host or cells: Sf9 insect cells (baculovirus)
Text: as §1, §2, §3, §4

Gβ1γ2 Trp99Ala = biological target: T3, Gβ1γ2 Trp99Ala (Rattus norvegicus, UniProt P54311, W99A); experiment: Phage ELISA, b-βγ mutant Trp99Ala; conditions: alanine-substituted Trp99, C-Terminal Interface; mean ± SD
T3 construct: made in house; host or cells: Sf9 insect cells (baculovirus)
Text: as §1, §2, §3, §4

Gβ1γ2 Asn230Ala = biological target: T4, Gβ1γ2 Asn230Ala (Rattus norvegicus, UniProt P54311, N230A); experiment: Phage ELISA, b-βγ mutant Asn230Ala; conditions: alanine-substituted Asn230, N-Terminal Interface; mean ± SD
T4 construct: made in house; host or cells: Sf9 insect cells (baculovirus)
Text: as §1, §2, §3, §4

Gβ1γ2 Lys57Ala = biological target: T5, Gβ1γ2 Lys57Ala (Rattus norvegicus, UniProt P54311, K57A); experiment: Phage ELISA, b-βγ mutant Lys57Ala; conditions: alanine-substituted Lys57, C-Terminal Interface; mean ± SD
T5 construct: made in house; host or cells: Sf9 insect cells (baculovirus)
Text: as §1, §2, §3, §4

Gβ1γ2 Met101Ala = biological target: T6, Gβ1γ2 Met101Ala (Rattus norvegicus, UniProt P54311, M101A); experiment: Phage ELISA, b-βγ mutant Met101Ala; conditions: alanine-substituted Met101, C-Terminal Interface; mean ± SD
T6 construct: made in house; host or cells: Sf9 insect cells (baculovirus)
Text: as §1, §2, §3, §4

Gβ1γ2 Trp332Ala = biological target: T7, Gβ1γ2 Trp332Ala (Rattus norvegicus, UniProt P54311, W332A); experiment: Phage ELISA, b-βγ mutant Trp332Ala; conditions: alanine-substituted Trp332, C-Terminal Interface; mean ± SD
T7 construct: made in house; host or cells: Sf9 insect cells (baculovirus)
Text: as §1, §2, §3, §4

Gβ1γ2 Leu117Ala = biological target: T8, Gβ1γ2 Leu117Ala (Rattus norvegicus, UniProt P54311, L117A); experiment: Phage ELISA, b-βγ mutant Leu117Ala; conditions: alanine-substituted Leu117, C-Terminal Interface; mean ± SD
T8 construct: made in house; host or cells: Sf9 insect cells (baculovirus)
Text: as §1, §2, §3, §4

Gβ1γ2 Asp186Ala = biological target: T9, Gβ1γ2 Asp186Ala (Rattus norvegicus, UniProt P54311, D186A); experiment: Phage ELISA, b-βγ mutant Asp186Ala; conditions: alanine-substituted Asp186, N-Terminal Interface; mean ± SD
T9 construct: made in house; host or cells: Sf9 insect cells (baculovirus)
Text: as §1, §2, §3, §4

Gβ1γ2 His311Ala = biological target: T10, Gβ1γ2 His311Ala (Rattus norvegicus, UniProt P54311, H311A); experiment: Phage ELISA, b-βγ mutant His311Ala; conditions: alanine-substituted His311, Indirect; mean ± SD
T10 construct: made in house; host or cells: Sf9 insect cells (baculovirus)
Text: as §1, §2, §3, §4

Gβ1γ2 Tyr59Ala = biological target: T11, Gβ1γ2 Tyr59Ala (Rattus norvegicus, UniProt P54311, Y59A); experiment: Phage ELISA, b-βγ mutant Tyr59Ala; conditions: alanine-substituted Tyr59, C-Terminal Interface; mean ± SD
T11 construct: made in house; host or cells: Sf9 insect cells (baculovirus)
Text: as §1, with “BAP.” for “BAP. Using this approach, 1-2 mg protein of purified protein can be obtained per liter of Sf9 insect cells. As 45 ng of protein is used in the phage ELISA assay, a single purification is sufficient for 10,000 to 30,000 binding assays.”
as §2, with “Forty μL of 25 nM bGβ1γ2 in TBS/0.5% TWEEN® was added to each well and incubated at 4° C. for 1.5 hour.” left out
as §3
The nine peptides were selected to represent the different consensus groups of peptides previously identified (See Scott et al. (2001) supra; Table 9) and to compare binding characteristics within and between consensus groups. […] For the purposes of present disclosure, any substitution that decreased the binding to less than 20% of the wild-type binding was considered to be a critical binding contact for that peptide.

Gβ1γ2 Tyr145Ala = biological target: T12, Gβ1γ2 Tyr145Ala (Rattus norvegicus, UniProt P54311, Y145A); experiment: Phage ELISA, b-βγ mutant Tyr145Ala; conditions: alanine-substituted Tyr145, N-Terminal Interface; mean ± SD
T12 construct: made in house; host or cells: Sf9 insect cells (baculovirus)
Text: as §1, §2, §3, §4

Gβ1γ2 Arg314Ala = biological target: T13, Gβ1γ2 Arg314Ala (Rattus norvegicus, UniProt P54311, R314A); experiment: Phage ELISA, b-βγ mutant Arg314Ala; conditions: alanine-substituted Arg314, Indirect; mean ± SD
T13 construct: made in house; host or cells: Sf9 insect cells (baculovirus)
Text: as §1, §2, §3, §4

T5 sequence (P54311 whole entry K57A): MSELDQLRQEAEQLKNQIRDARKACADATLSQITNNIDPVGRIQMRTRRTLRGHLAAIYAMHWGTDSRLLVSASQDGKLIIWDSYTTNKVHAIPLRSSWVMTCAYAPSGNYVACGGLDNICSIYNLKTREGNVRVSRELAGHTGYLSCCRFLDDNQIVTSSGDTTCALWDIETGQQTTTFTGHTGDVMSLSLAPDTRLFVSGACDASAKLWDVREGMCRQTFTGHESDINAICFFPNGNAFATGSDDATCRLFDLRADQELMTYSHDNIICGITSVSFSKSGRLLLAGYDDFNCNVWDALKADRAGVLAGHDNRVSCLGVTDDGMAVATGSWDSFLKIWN
T5 sequence (P63212 2-68 partner limits assumed): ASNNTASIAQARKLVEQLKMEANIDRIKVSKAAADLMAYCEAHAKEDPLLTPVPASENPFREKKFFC
T1 sequence (P54311 whole entry D246S): as the sequence (P54311 whole entry K57A) above, with A57K, D246S counted along it
T1 sequence (P63212 2-68 partner limits assumed): as the sequence (P63212 2-68 partner limits assumed) above
T6 sequence (P54311 whole entry M101A): as the sequence (P54311 whole entry K57A) above, with A57K, M101A counted along it
T6 sequence (P63212 2-68 partner limits assumed): as the sequence (P63212 2-68 partner limits assumed) above
T2 sequence (P54311 whole entry M188A): as the sequence (P54311 whole entry K57A) above, with A57K, M188A counted along it
T2 sequence (P63212 2-68 partner limits assumed): as the sequence (P63212 2-68 partner limits assumed) above
T13 sequence (P54311 whole entry R314A): as the sequence (P54311 whole entry K57A) above, with A57K, R314A counted along it
T13 sequence (P63212 2-68 partner limits assumed): as the sequence (P63212 2-68 partner limits assumed) above
T12 sequence (P54311 whole entry Y145A): as the sequence (P54311 whole entry K57A) above, with A57K, Y145A counted along it
T12 sequence (P63212 2-68 partner limits assumed): as the sequence (P63212 2-68 partner limits assumed) above
T3 sequence (P54311 whole entry W99A): as the sequence (P54311 whole entry K57A) above, with A57K, W99A counted along it
T3 sequence (P63212 2-68 partner limits assumed): as the sequence (P63212 2-68 partner limits assumed) above
T8 sequence (P54311 whole entry L117A): as the sequence (P54311 whole entry K57A) above, with A57K, L117A counted along it
T8 sequence (P63212 2-68 partner limits assumed): as the sequence (P63212 2-68 partner limits assumed) above
T4 sequence (P54311 whole entry N230A): as the sequence (P54311 whole entry K57A) above, with A57K, N230A counted along it
T4 sequence (P63212 2-68 partner limits assumed): as the sequence (P63212 2-68 partner limits assumed) above
T7 sequence (P54311 whole entry W332A): as the sequence (P54311 whole entry K57A) above, with A57K, W332A counted along it
T7 sequence (P63212 2-68 partner limits assumed): as the sequence (P63212 2-68 partner limits assumed) above
T10 sequence (P54311 whole entry H311A): as the sequence (P54311 whole entry K57A) above, with A57K, H311A counted along it
T10 sequence (P63212 2-68 partner limits assumed): as the sequence (P63212 2-68 partner limits assumed) above
T9 sequence (P54311 whole entry D186A): as the sequence (P54311 whole entry K57A) above, with A57K, D186A counted along it
T9 sequence (P63212 2-68 partner limits assumed): as the sequence (P63212 2-68 partner limits assumed) above
T11 sequence (P54311 whole entry Y59A): as the sequence (P54311 whole entry K57A) above, with A57K, Y59A counted along it
T11 sequence (P63212 2-68 partner limits assumed): as the sequence (P63212 2-68 partner limits assumed) above

Sequence	% of Wild-Type Signal, Asp246 (Gβ1γ2 Asp246Ser) [%]	% of Wild-Type Signal, Met188 (Gβ1γ2 Met188Ala) [%]	% of Wild-Type Signal, Trp99 (Gβ1γ2 Trp99Ala) [%]	% of Wild-Type Signal, Asn230 (Gβ1γ2 Asn230Ala) [%]	% of Wild-Type Signal, Lys57 (Gβ1γ2 Lys57Ala) [%]	% of Wild-Type Signal, Met101 (Gβ1γ2 Met101Ala) [%]	% of Wild-Type Signal, Trp332 (Gβ1γ2 Trp332Ala) [%]	% of Wild-Type Signal, Leu117 (Gβ1γ2 Leu117Ala) [%]	% of Wild-Type Signal, Asp186 (Gβ1γ2 Asp186Ala) [%]	% of Wild-Type Signal, His311 (Gβ1γ2 His311Ala) [%]	% of Wild-Type Signal, Tyr59 (Gβ1γ2 Tyr59Ala) [%]	% of Wild-Type Signal, Tyr145 (Gβ1γ2 Tyr145Ala) [%]	% of Wild-Type Signal, Arg314 (Gβ1γ2 Arg314Ala) [%]
SIGKALFILGYPDYD [3.14]	66.5 ± 7.5	2.5 ± 3.7	66.0 ± 7.7	22.4 ± 4.2	18.6 ± 4.6	26.8 ± 12.5	7.1 ± 3.7	2.1 ± 2.4	14.4 ± 13.4	93.4 ± 21.5	24.7 ± 15.2	0.8 ± 0.9	50.2 ± 5.0
SCGHGLKVQSTIGACA [3C]	2.0 ± 2.7	−5.7 ± 5.6	−0.5 ± 5.9	4.1 ± 4.4	3.6 ± 7.5	−4.2 ± 5.5	−0.3 ± 1.7	10 ± 13.3	35.0 ± 17.2	30.5 ± 18.9	8.5 ± 6.4	2.7 ± 10.5	8.3 ± 3.6
SCEKRYGIEFCT [C4]	35.8 ± 7.4	127.5 ± 22.4	67.0 ± 15.2	11.5 ± 6.0	−0.2 ± 1.9	61.2 ± 30.9	1.7 ± 3.0	18.4 ± 7.1	51.3 ± 15.0	36.5 ± 8.3	7.6 ± 9.6	4.4 ± 3.8	1.4 ± 1.0
SCEKRLGVRSCT [C5]	56.3 ± 4.1	97.2 ± 14.2	39.0 ± 3.8	33.5 ± 7.2	5.6 ± 5.3	47.8 ± 18.9	3.2 ± 3.7	28.5 ± 5.2	45.7 ± 5.2	58.7 ± 14.4	73.8 ± 16.6	16.7 ± 4.8	76.5 ± 6.7
